Our source for the stoichiometry N values is paper PMC9629515.

For assay [1], the target named is cytosolic domain of Photorhabdus luminescens LscV (LscVC; residues 357–705) (Photorhabdus luminescens (Table 1: Photorhabdus laumondii TT01)). Description: crystal structure.
For assay [2] the target is unchanged. Description: crystal structure. The source holds these as a separate data set.
Assay [3] deals with cytosolic domain of Aeromonas hydrophila AscV (AscVC; residues 375–721) (Aeromonas hydrophila AH3).

Like-named read-outs stand apart in the source and are kept apart here.

The stoichiometry N is the number of molecules, sites or subunits per partner or assembly. Take “cytosolic domain of Photorhabdus luminescens LscV (LscVC; residues 357–705) (domain or fragment)”: the stoichiometry N worked out at 8 in assay [1] and 9 in assay [2].
In assay [3], “cytosolic domain of Aeromonas hydrophila AscV (AscVC; residues 375–721) (domain or fragment)” came in with a stoichiometry N of 10.
